In patent US20220185901A1 (Bayer, published 2022):

Assays:
[1] = molecular target: ALK-1/BMPR-2 receptor pair on PathHunter U2OS ALK-1/BMPR-2 dimerization cells (DiscoverX 93-0962C3) (UniProt P37023 22-503; Q13873 27-1038); test: cell-based or functional assay
[2] = molecular target: T1, human ALK-1-Fc (TPP-11726) (human); test: ELISA: human ALK-1-Fc coated at 2 µg/ml, TPP-14696 titrated, detected with anti-human IgG2 (Fc specific) then anti-mouse IgG-HRP; readout Relative Fluorescence Units
T1 construct: Used for panning, screening and SPR; also called hALK-1-Fc
Method: (§1) Antigens human ALK-1-Fc and human ALK-2-Fc were coated at 2 μg/ml and binding of TPP-14696 and TPP-14719 was detected by anti-human IgG2 (Fc specific) antibody (Sigma 19513) followed by anti-mouse IgG (whole molecule)—HRP (Sigma A9044, 1:40000).
(§2) In order to determine the selectivity for the ALK-1/BMPR-2 receptor complex compared to the ALK-2/BMPR-2 receptor, the specificity of the agonistic antibodies has been evaluated by ELISA (FIG. 9). The antigens human ALK-1-Fc and human ALK-2-Fc were coated at 2 μg/ml and binding of TPP-14696 and TPP-14719 was detected by anti-human IgG2 (Fc specific) antibody (Sigma 19513) followed by anti-mouse IgG (whole molecule)—HRP (Sigma A9044, 1:40000).

[3] = molecular target: T2, hActivin RIA/ALK-2 Fc Chimera (TPP-17233) (human, UniProt Q04771 23-123); test: ELISA: human ALK-2-Fc coated at 2 µg/ml, TPP-14696 titrated, detected with anti-human IgG2 (Fc specific) then anti-mouse IgG-HRP; readout Relative Fluorescence Units
T2 construct: also called human ALK-2-Fc
T2 sequence: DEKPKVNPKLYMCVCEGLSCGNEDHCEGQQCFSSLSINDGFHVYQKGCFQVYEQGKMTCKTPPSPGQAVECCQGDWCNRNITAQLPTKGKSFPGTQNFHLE
Method: as §1, §2

[4] = molecular target: T1, human ALK-1-Fc (TPP-11726); test: ELISA: human ALK-1-Fc coated at 2 µg/ml, TPP-14719 titrated, detected with anti-human IgG2 (Fc specific) then anti-mouse IgG-HRP; readout Relative Fluorescence Units
Method: as §1, §2

[5] = molecular target: T2, hActivin RIA/ALK-2 Fc Chimera …; test: ELISA: human ALK-2-Fc coated at 2 µg/ml, TPP-14719 titrated, detected with anti-human IgG2 (Fc specific) then anti-mouse IgG-HRP; readout Relative Fluorescence Units
Method: as §1, §2

T1 sequence (chain, as listed by the source limits assumed): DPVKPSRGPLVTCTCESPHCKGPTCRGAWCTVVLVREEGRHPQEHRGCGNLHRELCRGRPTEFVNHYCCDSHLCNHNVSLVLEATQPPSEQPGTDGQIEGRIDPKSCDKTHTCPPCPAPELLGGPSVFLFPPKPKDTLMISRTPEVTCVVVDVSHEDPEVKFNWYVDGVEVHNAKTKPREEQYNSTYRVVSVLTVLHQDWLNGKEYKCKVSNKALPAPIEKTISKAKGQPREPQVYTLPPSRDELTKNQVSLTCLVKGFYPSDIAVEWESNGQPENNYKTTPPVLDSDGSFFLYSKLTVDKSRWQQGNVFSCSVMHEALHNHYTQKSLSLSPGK
Chain of ALK-1/BMPR-2 receptor pair on PathHunter U2OS ALK-1/BMPR-2 dimerization cells (DiscoverX 93-0962C3) (P37023 22-503, chain 1 of 2): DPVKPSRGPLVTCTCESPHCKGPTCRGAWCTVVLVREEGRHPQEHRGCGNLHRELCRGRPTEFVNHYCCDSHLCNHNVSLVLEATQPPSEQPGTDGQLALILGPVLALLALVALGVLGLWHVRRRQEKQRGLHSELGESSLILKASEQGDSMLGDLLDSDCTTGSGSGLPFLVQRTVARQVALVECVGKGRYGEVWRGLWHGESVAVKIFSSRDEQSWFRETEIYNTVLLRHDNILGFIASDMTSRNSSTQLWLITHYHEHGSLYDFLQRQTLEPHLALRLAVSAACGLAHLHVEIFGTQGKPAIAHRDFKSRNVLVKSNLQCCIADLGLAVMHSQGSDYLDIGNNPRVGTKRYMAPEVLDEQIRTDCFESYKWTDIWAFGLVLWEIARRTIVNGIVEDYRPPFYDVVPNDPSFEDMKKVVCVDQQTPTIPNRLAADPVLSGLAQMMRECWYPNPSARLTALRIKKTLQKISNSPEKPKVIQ
Chain of ALK-1/BMPR-2 receptor pair on PathHunter U2OS ALK-1/BMPR-2 dimerization cells (DiscoverX 93-0962C3) (Q13873 27-1038, chain 2 of 2): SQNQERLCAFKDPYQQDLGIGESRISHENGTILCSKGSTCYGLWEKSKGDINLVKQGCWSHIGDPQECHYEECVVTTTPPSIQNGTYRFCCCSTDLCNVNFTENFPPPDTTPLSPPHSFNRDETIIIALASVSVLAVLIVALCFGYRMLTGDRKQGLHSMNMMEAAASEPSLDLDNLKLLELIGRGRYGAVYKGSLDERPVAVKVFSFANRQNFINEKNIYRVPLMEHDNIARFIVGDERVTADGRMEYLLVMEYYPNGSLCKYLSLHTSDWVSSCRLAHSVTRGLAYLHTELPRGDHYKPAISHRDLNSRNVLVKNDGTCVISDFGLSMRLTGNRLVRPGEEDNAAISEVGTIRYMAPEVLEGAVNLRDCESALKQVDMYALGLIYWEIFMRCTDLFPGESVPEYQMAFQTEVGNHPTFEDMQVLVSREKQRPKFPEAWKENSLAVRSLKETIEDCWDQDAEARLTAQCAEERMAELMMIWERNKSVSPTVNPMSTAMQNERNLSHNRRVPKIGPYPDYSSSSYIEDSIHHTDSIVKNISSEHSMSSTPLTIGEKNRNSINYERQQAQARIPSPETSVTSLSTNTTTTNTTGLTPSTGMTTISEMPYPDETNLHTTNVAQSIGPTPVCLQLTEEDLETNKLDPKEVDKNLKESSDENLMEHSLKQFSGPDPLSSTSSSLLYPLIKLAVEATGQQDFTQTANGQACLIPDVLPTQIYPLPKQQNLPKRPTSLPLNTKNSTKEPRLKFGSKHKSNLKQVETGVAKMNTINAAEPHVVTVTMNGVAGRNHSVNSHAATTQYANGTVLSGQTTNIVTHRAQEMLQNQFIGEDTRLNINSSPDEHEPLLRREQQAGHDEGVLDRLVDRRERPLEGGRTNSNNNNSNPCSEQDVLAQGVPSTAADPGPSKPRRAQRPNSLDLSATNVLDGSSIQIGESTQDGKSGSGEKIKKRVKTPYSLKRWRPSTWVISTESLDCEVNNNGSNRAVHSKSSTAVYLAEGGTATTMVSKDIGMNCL

B1: TPP-14696 (13654-13667-scFv-kih-IgG2_Fc) (bispecific antibody)
chain 1: EVQLLESGGGLVQPGGSLRLSCAASGFTFSIYAMSWVRQAPGKGLEWVSAISGSGGSTYYADSVKGRFTISRDNSKNTLYLQMNSLRAEDTAVYYCARDFDYWGQGTLVTVTSSGGGGSGGGGSGGGGSQSVLTQPPSASGTPGQRVTISCSGSSSNIGSNYVYWYQQLPGTAPKLLIYGNINRPSGVPDRFSGSKSGTSASLAISGLRSEDEADYYCAAWDDSLNGRVFGGGTKLTVLGGGGSGGGGSGGGGSGVECPPCPAPPVAGPSVFLFPPKPKDTLMISRTPEVTCVVVDVSHEDPEVQFNWYVDGVEVHNAKTKPREEQFNSTFRVVSVLTVVHQDWLNGKEYKCKVSNKGLPAPIEKTISKTKGQPREPQVYTLPPCREEMTKNQVSLWCLVKGFYPSDIAVEWESNGQPENNYKTTPPMLDSDGSFFLYSKLTVDKSRWQQGNVFSCSVMHEALHNHYTQKSLSLSPG
chain 2: EVQLLESGGGLVQPGGSLRLSCAASGFTFSNAWMNWVRQAPGKGLEWVSSISSSSSYIYYADSVKGRFTISRDNSKNTLYLQMNSLRAEDTAVYYCARAVAAGGMFWGLDQWGQGTLVTVTSSGGGGSGGGGSGGGGSQSVLTQPPSASGTPGQRVTISCSGSRSNIGSNSVHWYQQLPGTAPKLLIYGNSNRPSGVPDRFSGSKSGTSASLAISGLRSEDEADYYCQSYDSSLNDHVVFGGGTKLTVLGGGGSGGGGSGGGGSGVECPPCPAPPVAGPSVFLFPPKPKDTLMISRTPEVTCVVVDVSHEDPEVQFNWYVDGVEVHNAKTKPREEQFNSTFRVVSVLTVVHQDWLNGKEYKCKVSNKGLPAPIEKTISKTKGQPREPQVCTLPPSREEMTKNQVSLSCAVKGFYPSDIAVEWESNGQPENNYKTTPPMLDSDGSFFLVSKLTVDKSRWQQGNVFSCSVMHEALHNHYTQKSLSLSPG
notes: scFv-Fc (kih) heterodimer with IgG2 Fc; also called TPP-14669 (as printed in some places); BsAB TPP-14696
Agonistic activity in PathHunter U2OS cells EC50 [1]: 6.3 nM
EC50 [2]: 1.01 nM
binding result [3]: no binding

B2: TPP-14719 (13660-13469-scFv-kih-IgG2_Fc) (bispecific antibody)
chain 1: EVQLLESGGGLVQPGGSLRLSCAASGFTFSSYAMSWVRQAPGKGLEWVANINQDGSEKNYVDSMRGRFTISRDNSKNTLYLQMNSLRAEDTAVYYCAREFDYWGQGTLVTVTSSGGGGSGGGGSGGGGSQSVLAQPPSASGTPGQRVTISCSGSSSNIGSNYVYWYQQLPGTAPKLLIYGNNKRPSGVPDRFSGSKSGTSASLAISGLRSEDEADYYCAAWDDSLNGRVFGGGTKLTVLGGGGSGGGGSGGGGSGVECPPCPAPPVAGPSVFLFPPKPKDTLMISRTPEVTCVVVDVSHEDPEVQFNWYVDGVEVHNAKTKPREEQFNSTFRVVSVLTVVHQDWLNGKEYKCKVSNKGLPAPIEKTISKTKGQPREPQVYTLPPCREEMTKNQVSLWCLVKGFYPSDIAVEWESNGQPENNYKTTPPMLDSDGSFFLYSKLTVDKSRWQQGNVFSCSVMHEALHNHYTQKSLSLSPG
chain 2: EVQLLESGGGLVQPGGSLRLSCAASGFTFSDYYMTWIRQAPGKGLEWVSSISGGSTYYADSRKGRFTISRDNSENTLYLQMNSLRAEDTAVYYCARDFGVAGWFGQYGMDVWGQGTLVTVSSGGGGSGGGGSGGGGSQSVLTQPPSASGTPGQRVTISCTGSSSNIGAGYDVHWYQQLPGTAPKLLIYRSNQRPSGVPDRFSGSKSGTSASLAISGLRSEDEADYYCSSYAGNYNLVFGGGTKLTVLGGGGSGGGGSGGGGSGVECPPCPAPPVAGPSVFLFPPKPKDTLMISRTPEVTCVVVDVSHEDPEVQFNWYVDGVEVHNAKTKPREEQFNSTFRVVSVLTVVHQDWLNGKEYKCKVSNKGLPAPIEKTISKTKGQPREPQVCTLPPSREEMTKNQVSLSCAVKGFYPSDIAVEWESNGQPENNYKTTPPMLDSDGSFFLVSKLTVDKSRWQQGNVFSCSVMHEALHNHYTQKSLSLSPG
notes: scFv-Fc (kih) heterodimer with IgG2 Fc; also called BsAB TPP-14719
Agonistic activity in PathHunter U2OS cells EC50 [1]: 6.9 nM
EC50 [4]: 0.747 nM
binding result [5]: no binding
